Values quoted from earlier work, collected in patent US6194458A, “Benzamide potassium channel inhibitors” (Merck & Co., Inc., priority 1999, dated 2001).

Biological target: T1, Kv 1.3 channels (Homo sapiens, UniProt P22001)
T1 construct: expressed in transfected cells; host or cells: CHO cells
Details: blocker of Kv 1.3 channels; CHO cells transfected with Kv 1.3; stated in the method description

T1 sequence (P22001 whole entry): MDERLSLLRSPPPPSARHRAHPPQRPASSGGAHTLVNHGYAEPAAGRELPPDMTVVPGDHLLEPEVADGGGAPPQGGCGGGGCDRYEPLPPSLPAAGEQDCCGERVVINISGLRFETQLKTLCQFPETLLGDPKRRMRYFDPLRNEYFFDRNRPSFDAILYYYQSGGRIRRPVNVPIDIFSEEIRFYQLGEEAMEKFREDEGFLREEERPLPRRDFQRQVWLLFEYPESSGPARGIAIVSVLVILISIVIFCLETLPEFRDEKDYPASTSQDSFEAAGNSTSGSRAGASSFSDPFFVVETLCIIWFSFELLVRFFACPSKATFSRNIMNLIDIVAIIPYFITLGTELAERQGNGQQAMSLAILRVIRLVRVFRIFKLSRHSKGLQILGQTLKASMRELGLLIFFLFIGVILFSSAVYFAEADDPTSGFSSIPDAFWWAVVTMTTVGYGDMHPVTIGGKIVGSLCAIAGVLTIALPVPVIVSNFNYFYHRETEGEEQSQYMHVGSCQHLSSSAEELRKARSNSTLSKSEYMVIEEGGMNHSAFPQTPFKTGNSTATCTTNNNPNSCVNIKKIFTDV

**Q.** With “margatoxin (TIINVKCTSPKQCLPPCKAQFGQSAGAKCMNGKCKCYPH; UniProt P40755 1-39, looked up)” as the substance, how does the IC50 read?
**A.** Its IC50 is 0.1 nM.
